Tests used:
[1] = target: synthetic Aβ42 peptide, P05067
[2] = target: synthetic Aβ40 peptide, P05067
Chain of synthetic Aβ40 peptide, P05067 (P05067 whole entry, looked up, tested part not stated): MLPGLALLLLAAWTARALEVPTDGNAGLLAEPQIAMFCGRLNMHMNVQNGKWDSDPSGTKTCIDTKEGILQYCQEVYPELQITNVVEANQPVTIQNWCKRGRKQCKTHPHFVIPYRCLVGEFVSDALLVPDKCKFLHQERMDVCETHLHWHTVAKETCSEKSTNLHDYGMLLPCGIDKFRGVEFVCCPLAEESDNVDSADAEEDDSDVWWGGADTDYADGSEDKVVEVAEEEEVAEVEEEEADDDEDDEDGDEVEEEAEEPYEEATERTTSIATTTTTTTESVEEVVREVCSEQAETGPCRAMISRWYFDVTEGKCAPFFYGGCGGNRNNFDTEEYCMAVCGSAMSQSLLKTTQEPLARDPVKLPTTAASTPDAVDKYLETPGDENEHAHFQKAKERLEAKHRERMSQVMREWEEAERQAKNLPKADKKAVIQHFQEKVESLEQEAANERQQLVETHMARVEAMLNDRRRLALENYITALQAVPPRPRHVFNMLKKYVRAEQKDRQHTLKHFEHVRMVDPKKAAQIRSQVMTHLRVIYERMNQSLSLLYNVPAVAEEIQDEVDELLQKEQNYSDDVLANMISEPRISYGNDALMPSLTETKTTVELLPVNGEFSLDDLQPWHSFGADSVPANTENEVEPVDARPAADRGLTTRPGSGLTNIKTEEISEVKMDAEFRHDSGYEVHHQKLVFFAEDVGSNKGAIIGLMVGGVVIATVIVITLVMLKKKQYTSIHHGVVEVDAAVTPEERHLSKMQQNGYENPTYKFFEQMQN

Chain of synthetic Aβ42 peptide, P05067 (P05067 whole entry, looked up, tested part not stated): as above

B1: BACE1 from Fc purification (protein)
chain: ETDEEPEEPGRRGSFVEMVDNLRGKSGQGYYVEMTVGSPPQTLNILVDTGSSNFAVGAAPHPFLHRYYQRQLSSTYRDLRKGVYVPYTQGKWEGELGTDLVSIPHGPNVTVRANIAAITESDKFFINGSNWEGILGLAYAEIARPDDSLEPFFDSLVKQTHVPNLFSLQLCGAGFPLNQSEVLASVGGSMIIGGIDHSLYTGSLWYTPIRREWYYEVIIVRVEINGQDLKMDCKEYNYDKSIVDSGTTNLRLPKKVFEAAVKSIKAASSTEKFPDGFWLGEQLVCWQAGTTPWNIFPVISLYLMGEVTNQSFRITILPQQYLRPVEDVATSQDDCYKFAISQSSTGTVMGAVIMEGFYVVFDRARKRIGFAVSACHVHDEFRTAAVEGPFVTLDMEDCGYNIPQTDESTLMTIAY
- cleavage in vitro analyzed by MALDI-MS [1]: cleavage of Aβ40 and Aβ42 by BACE1 in vitro
- cleavage in vitro analyzed by MALDI-MS [2]: cleavage of Aβ40 and Aβ42 by BACE1 in vitro
